B1: THAP1; numbered along this chain (parent)
chain: MVQSCSAYGCKNRYDKDKPVSFHKFPLTRPSLCKEWEAAVRRKNFKPTKYSSICSEHFTPDCFKRECNNKLLKENAVPTIFLCTEPHDKKEDLLEPQEQLPPPPLPPPVSQVDAAIGLLMPPLQTPVNLSVFCDHNYTVEDTMHQRKRIHQLEQQVEKLRKKLKTAQQRCRRQERQLEKLKEVVHFQKEKDDVSERGYVILPNDYFEIVEVPA

Variants of: B1
Experiment: THAP1 transcriptional activity (GFP+/GFP- enrichment relative to wild-type constructs) (ratio to WT); higher = more THAP1 activity (PSMB5 reporter activation)
Details: with PSMB5 promoter-GFP reporter
In short: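 A lentiviral site-saturation library covering residues 2–213 of human THAP1, with each position changed to all 20 amino acids, was transduced in duplicate at MOI ~0.3 into THAP1-knockout HEK-293T cells with mClover3 knocked in at endogenous PSMB5. Five days later, BFP+ cells were sorted into GFP-dim and GFP-bright bins and variants were counted by Illumina sequencing of genomic DNA amplicons. Activity is the bright/dim read fold change averaged over replicates and divided by the mean of wild-type synonymous constructs.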

Row | Variant | THAP1 transcriptional activity
1 | MVQSCSAYGCKNRYDKDKPVSFHKFPLTRPSLCKEWEAAVRRKNFKPTKYSSICSEHFTPDCFKRECNNKLLKENAVPTIFLCTEPHDKKEDLLEPQEQLPPPPLPPPVSQVDAAIGLLSPPLQTPVNLSVFCDHNYTVEDTMHQRKRIHQLEQQVEKLRKKLKTAQQRCRRQERQLEKLKEVVHFQKEKDDVSERGYVILPNDYFEIVEVPA [M120S] | 0.984
2 | MVQSCSAYGCKNRYDKDKPVSFHKFPLTRPSLCKEWEAAVRRKNFKPTKYSSICSEHFTPDCFKRECNNKLLKENAVPTIFLCTEPHDKKEDLLEPQEQLPPPPLPPPVSQVDAAIGLLVPPLQTPVNLSVFCDHNYTVEDTMHQRKRIHQLEQQVEKLRKKLKTAQQRCRRQERQLEKLKEVVHFQKEKDDVSERGYVILPNDYFEIVEVPA [M120V] | 1.24
3 | MVQSCSAYGCKNRYDKDKPVSFHKFPLTRPSLCKEWEAAVRRKNFKPTKYSSICSEHFTPDCFKRECNNKLLKENAVPTIFLCTEPHDKKEDLLEPQEQLPPPPLPPPVSQVDAAIGLLYPPLQTPVNLSVFCDHNYTVEDTMHQRKRIHQLEQQVEKLRKKLKTAQQRCRRQERQLEKLKEVVHFQKEKDDVSERGYVILPNDYFEIVEVPA [M120Y] | 0.474
4 | MVQSCSAYGCKNRYDKDKPVSFHKFPLTRPSLCKEWEAAVRRKNFKPTKYSSICSEHFTPDCFKRECNNKLLKENAVPTIFLCTEPHDKKEDLLEPQEQLPPPPLPPPVSQVDAAIGLLTPPLQTPVNLSVFCDHNYTVEDTMHQRKRIHQLEQQVEKLRKKLKTAQQRCRRQERQLEKLKEVVHFQKEKDDVSERGYVILPNDYFEIVEVPA [M120T] | 1.85
5 | MVQSCSAYGCKNRYDKDKPVSFHKFPLTRPSLCKEWEAAVRRKNFKPTKYSSICSEHFTPDCFKRECNNKLLKENAVPTIFLCTEPHDKKEDLLEPQEQLPPPPLPPPVSQVDAAIGLLWPPLQTPVNLSVFCDHNYTVEDTMHQRKRIHQLEQQVEKLRKKLKTAQQRCRRQERQLEKLKEVVHFQKEKDDVSERGYVILPNDYFEIVEVPA [M120W] | 0.324
6 | MVQSCSAYGCKNRYDKDKPVSFHKFPLTRPSLCKEWEAAVRRKNFKPTKYSSICSEHFTPDCFKRECNNKLLKENAVPTIFLCTEPHDKKEDLLEPQEQLPPPPLPPPVSQVDAAIGLLMPCLQTPVNLSVFCDHNYTVEDTMHQRKRIHQLEQQVEKLRKKLKTAQQRCRRQERQLEKLKEVVHFQKEKDDVSERGYVILPNDYFEIVEVPA [P122C] | 0.319
7 | MVQSCSAYGCKNRYDKDKPVSFHKFPLTRPSLCKEWEAAVRRKNFKPTKYSSICSEHFTPDCFKRECNNKLLKENAVPTIFLCTEPHDKKEDLLEPQEQLPPPPLPPPVSQVDAAIGLLMPFLQTPVNLSVFCDHNYTVEDTMHQRKRIHQLEQQVEKLRKKLKTAQQRCRRQERQLEKLKEVVHFQKEKDDVSERGYVILPNDYFEIVEVPA [P122F] | 0.156
8 | MVQSCSAYGCKNRYDKDKPVSFHKFPLTRPSLCKEWEAAVRRKNFKPTKYSSICSEHFTPDCFKRECNNKLLKENAVPTIFLCTEPHDKKEDLLEPQEQLPPPPLPPPVSQVDAAIGLLMPDLQTPVNLSVFCDHNYTVEDTMHQRKRIHQLEQQVEKLRKKLKTAQQRCRRQERQLEKLKEVVHFQKEKDDVSERGYVILPNDYFEIVEVPA [P122D] | 0.515
9 | MVQSCSAYGCKNRYDKDKPVSFHKFPLTRPSLCKEWEAAVRRKNFKPTKYSSICSEHFTPDCFKRECNNKLLKENAVPTIFLCTEPHDKKEDLLEPQEQLPPPPLPPPVSQVDAAIGLLMPELQTPVNLSVFCDHNYTVEDTMHQRKRIHQLEQQVEKLRKKLKTAQQRCRRQERQLEKLKEVVHFQKEKDDVSERGYVILPNDYFEIVEVPA [P122E] | 0.885
10 | MVQSCSAYGCKNRYDKDKPVSFHKFPLTRPSLCKEWEAAVRRKNFKPTKYSSICSEHFTPDCFKRECNNKLLKENAVPTIFLCTEPHDKKEDLLEPQEQLPPPPLPPPVSQVDAAIGLLMPGLQTPVNLSVFCDHNYTVEDTMHQRKRIHQLEQQVEKLRKKLKTAQQRCRRQERQLEKLKEVVHFQKEKDDVSERGYVILPNDYFEIVEVPA [P122G] | 0.667
11 | MVQSCSAYGCKNRYDKDKPVSFHKFPLTRPSLCKEWEAAVRRKNFKPTKYSSICSEHFTPDCFKRECNNKLLKENAVPTIFLCTEPHDKKEDLLEPQEQLPPPPLPPPVSQVDAAIGLLMPALQTPVNLSVFCDHNYTVEDTMHQRKRIHQLEQQVEKLRKKLKTAQQRCRRQERQLEKLKEVVHFQKEKDDVSERGYVILPNDYFEIVEVPA [P122A] | 0.914
12 | MVQSCSAYGCKNRYDKDKPVSFHKFPLTRPSLCKEWEAAVRRKNFKPTKYSSICSEHFTPDCFKRECNNKLLKENAVPTIFLCTEPHDKKEDLLEPQEQLPPPPLPPPVSQVDAAIGLLMNPLQTPVNLSVFCDHNYTVEDTMHQRKRIHQLEQQVEKLRKKLKTAQQRCRRQERQLEKLKEVVHFQKEKDDVSERGYVILPNDYFEIVEVPA [P121N] | 0.457
13 | MVQSCSAYGCKNRYDKDKPVSFHKFPLTRPSLCKEWEAAVRRKNFKPTKYSSICSEHFTPDCFKRECNNKLLKENAVPTIFLCTEPHDKKEDLLEPQEQLPPPPLPPPVSQVDAAIGLLMVPLQTPVNLSVFCDHNYTVEDTMHQRKRIHQLEQQVEKLRKKLKTAQQRCRRQERQLEKLKEVVHFQKEKDDVSERGYVILPNDYFEIVEVPA [P121V] | 0.207
14 | MVQSCSAYGCKNRYDKDKPVSFHKFPLTRPSLCKEWEAAVRRKNFKPTKYSSICSEHFTPDCFKRECNNKLLKENAVPTIFLCTEPHDKKEDLLEPQEQLPPPPLPPPVSQVDAAIGLLMMPLQTPVNLSVFCDHNYTVEDTMHQRKRIHQLEQQVEKLRKKLKTAQQRCRRQERQLEKLKEVVHFQKEKDDVSERGYVILPNDYFEIVEVPA [P121M] | 0.288
15 | MVQSCSAYGCKNRYDKDKPVSFHKFPLTRPSLCKEWEAAVRRKNFKPTKYSSICSEHFTPDCFKRECNNKLLKENAVPTIFLCTEPHDKKEDLLEPQEQLPPPPLPPPVSQVDAAIGLLMWPLQTPVNLSVFCDHNYTVEDTMHQRKRIHQLEQQVEKLRKKLKTAQQRCRRQERQLEKLKEVVHFQKEKDDVSERGYVILPNDYFEIVEVPA [P121W] | 0.0793
16 | MVQSCSAYGCKNRYDKDKPVSFHKFPLTRPSLCKEWEAAVRRKNFKPTKYSSICSEHFTPDCFKRECNNKLLKENAVPTIFLCTEPHDKKEDLLEPQEQLPPPPLPPPVSQVDAAIGLLMAPLQTPVNLSVFCDHNYTVEDTMHQRKRIHQLEQQVEKLRKKLKTAQQRCRRQERQLEKLKEVVHFQKEKDDVSERGYVILPNDYFEIVEVPA [P121A] | 1.18
17 | MVQSCSAYGCKNRYDKDKPVSFHKFPLTRPSLCKEWEAAVRRKNFKPTKYSSICSEHFTPDCFKRECNNKLLKENAVPTIFLCTEPHDKKEDLLEPQEQLPPPPLPPPVSQVDAAIGLLMEPLQTPVNLSVFCDHNYTVEDTMHQRKRIHQLEQQVEKLRKKLKTAQQRCRRQERQLEKLKEVVHFQKEKDDVSERGYVILPNDYFEIVEVPA [P121E] | 0.735
18 | MVQSCSAYGCKNRYDKDKPVSFHKFPLTRPSLCKEWEAAVRRKNFKPTKYSSICSEHFTPDCFKRECNNKLLKENAVPTIFLCTEPHDKKEDLLEPQEQLPPPPLPPPVSQVDAAIGLLMFPLQTPVNLSVFCDHNYTVEDTMHQRKRIHQLEQQVEKLRKKLKTAQQRCRRQERQLEKLKEVVHFQKEKDDVSERGYVILPNDYFEIVEVPA [P121F] | 0.115
19 | MVQSCSAYGCKNRYDKDKPVSFHKFPLTRPSLCKEWEAAVRRKNFKPTKYSSICSEHFTPDCFKRECNNKLLKENAVPTIFLCTEPHDKKEDLLEPQEQLPPPPLPPPVSQVDAAIGLLMQPLQTPVNLSVFCDHNYTVEDTMHQRKRIHQLEQQVEKLRKKLKTAQQRCRRQERQLEKLKEVVHFQKEKDDVSERGYVILPNDYFEIVEVPA [P121Q] | 0.491
20 | MVQSCSAYGCKNRYDKDKPVSFHKFPLTRPSLCKEWEAAVRRKNFKPTKYSSICSEHFTPDCFKRECNNKLLKENAVPTIFLCTEPHDKKEDLLEPQEQLPPPPLPPPVSQVDAAIGLLMLPLQTPVNLSVFCDHNYTVEDTMHQRKRIHQLEQQVEKLRKKLKTAQQRCRRQERQLEKLKEVVHFQKEKDDVSERGYVILPNDYFEIVEVPA [P121L] | 0.104
21 | MVQSCSAYGCKNRYDKDKPVSFHKFPLTRPSLCKEWEAAVRRKNFKPTKYSSICSEHFTPDCFKRECNNKLLKENAVPTIFLCTEPHDKKEDLLEPQEQLPPPPLPPPVSQVDAAIGLLMDPLQTPVNLSVFCDHNYTVEDTMHQRKRIHQLEQQVEKLRKKLKTAQQRCRRQERQLEKLKEVVHFQKEKDDVSERGYVILPNDYFEIVEVPA [P121D] | 0.48
22 | MVQSCSAYGCKNRYDKDKPVSFHKFPLTRPSLCKEWEAAVRRKNFKPTKYSSICSEHFTPDCFKRECNNKLLKENAVPTIFLCTEPHDKKEDLLEPQEQLPPPPLPPPVSQVDAAIGLLMKPLQTPVNLSVFCDHNYTVEDTMHQRKRIHQLEQQVEKLRKKLKTAQQRCRRQERQLEKLKEVVHFQKEKDDVSERGYVILPNDYFEIVEVPA [P121K] | 0.594
23 | MVQSCSAYGCKNRYDKDKPVSFHKFPLTRPSLCKEWEAAVRRKNFKPTKYSSICSEHFTPDCFKRECNNKLLKENAVPTIFLCTEPHDKKEDLLEPQEQLPPPPLPPPVSQVDAAIGLLMYPLQTPVNLSVFCDHNYTVEDTMHQRKRIHQLEQQVEKLRKKLKTAQQRCRRQERQLEKLKEVVHFQKEKDDVSERGYVILPNDYFEIVEVPA [P121Y] | 0.185
24 | MVQSCSAYGCKNRYDKDKPVSFHKFPLTRPSLCKEWEAAVRRKNFKPTKYSSICSEHFTPDCFKRECNNKLLKENAVPTIFLCTEPHDKKEDLLEPQEQLPPPPLPPPVSQVDAAIGLLMGPLQTPVNLSVFCDHNYTVEDTMHQRKRIHQLEQQVEKLRKKLKTAQQRCRRQERQLEKLKEVVHFQKEKDDVSERGYVILPNDYFEIVEVPA [P121G] | 0.454
25 | MVQSCSAYGCKNRYDKDKPVSFHKFPLTRPSLCKEWEAAVRRKNFKPTKYSSICSEHFTPDCFKRECNNKLLKENAVPTIFLCTEPHDKKEDLLEPQEQLPPPPLPPPVSQVDAAIGLLMSPLQTPVNLSVFCDHNYTVEDTMHQRKRIHQLEQQVEKLRKKLKTAQQRCRRQERQLEKLKEVVHFQKEKDDVSERGYVILPNDYFEIVEVPA [P121S] | 0.441
26 | MVQSCSAYGCKNRYDKDKPVSFHKFPLTRPSLCKEWEAAVRRKNFKPTKYSSICSEHFTPDCFKRECNNKLLKENAVPTIFLCTEPHDKKEDLLEPQEQLPPPPLPPPVSQVDAAIGLLMCPLQTPVNLSVFCDHNYTVEDTMHQRKRIHQLEQQVEKLRKKLKTAQQRCRRQERQLEKLKEVVHFQKEKDDVSERGYVILPNDYFEIVEVPA [P121C] | 0.259
27 | MVQSCSAYGCKNRYDKDKPVSFHKFPLTRPSLCKEWEAAVRRKNFKPTKYSSICSEHFTPDCFKRECNNKLLKENAVPTIFLCTEPHDKKEDLLEPQEQLPPPPLPPPVSQVDAAIGLLMIPLQTPVNLSVFCDHNYTVEDTMHQRKRIHQLEQQVEKLRKKLKTAQQRCRRQERQLEKLKEVVHFQKEKDDVSERGYVILPNDYFEIVEVPA [P121I] | 0.299
28 | MVQSCSAYGCKNRYDKDKPVSFHKFPLTRPSLCKEWEAAVRRKNFKPTKYSSICSEHFTPDCFKRECNNKLLKENAVPTIFLCTEPHDKKEDLLEPQEQLPPPPLPPPVSQVDAAIGLLMRPLQTPVNLSVFCDHNYTVEDTMHQRKRIHQLEQQVEKLRKKLKTAQQRCRRQERQLEKLKEVVHFQKEKDDVSERGYVILPNDYFEIVEVPA [P121R] | 0.501
